The subject of series [1] is Helicobacter pylori (SS1 strain). Put plainly: Antibacterial activity in vitro by concentration, CFU assay, laser 10.0 J/cm^2. The format is cell-based. The following applies: for concentration at which colonies hardly appear / did not appear / Helicobacter pylori no longer grows / concentration from which the number of Helicobacter pylori colonies decreases: concentration based on the photosensitizer; for concentration at which colonies hardly appear / did not appear / Helicobacter pylori no longer grows / concentration from which the number of Helicobacter pylori colonies decreases / colony result value compared to the NC group at 50.0 μg/ml: laser 10.0 J/cm^2; for colony result value compared to the NC group at 50.0 μg/ml: 50.0 μg/ml free photosensitizer.

The test system of series [2] is Helicobacter pylori (26695 strain). Put plainly: Inhibition zone analysis of photodynamic antibacterial effect by laser intensity. It is filed as cell-based. The following applies: 50.0 μg/ml based on Pheoa.
For series [3], the system named is AGS cells. The procedure:
AGS cells were dispensed into each well by 1 ml at a concentration of 2×10^4 cells/well in a 24-well plate and cultured at 37° C. and 5% CO2 for 24 hours.
After the reaction, the laser was irradiated in the range of 0-4.0 J/cm^2 using a laser of 50 mW intensity, and the MTT assay was performed to calculate the cell viability compared with the control.

The test system of series [4] is AGS cells. In words: Cellular uptake in AGS cells (pheophorbide a fluorescence intensity). The following applies: 30 minutes at 36° C., equal concentration based on pheophorbide a. The format is cell-based, human. As for the experimental part: After incubation, it was washed twice with DPBS, treated with trypsin and cells were collected and centrifuged (1500 rpm, 3 minutes) to remove the supernatant.

Series [5] relates to Helicobacter pylori SS1 strain. Put plainly: Confocal microscopy: interaction with and inactivation of Helicobacter pylori SS1 strain. It is filed as cell-based.
Source text: (§1) Then, it was redispersed with D.W and the above process was repeated twice.
as §1

For “3′-Sialyllactose-Pullulan-Pheophorbide a [Example 3SL-PU-Pheoa]”, in series [1] (20.0 μg/ml based on Pheoa, laser 10.0 J/cm^2, decreased from 1×10^5 CFU/ml), the “number of Helicobacter pylori colonies at 20.0 μg/ml” value is on record as 5×10^3 CFU/ml. In series [1], the “concentration at which colonies hardly appear / did not appear / Helicobacter pylori no longer grows” value was ≥ 50000 ng/mL.
For butyl-poly(3SL-lysine)10-PPIX, in series [1], the “concentration at which colonies hardly appear / did not appear / Helicobacter pylori no longer grows” value came out at 10000 ng/mL and the “concentration from which the number of Helicobacter pylori colonies decreases” value came out at 5000 ng/mL.
“3′-Sialyllactose-PEG-Pheophorbide a [3SL-PEG-Pheoa]”: in series [2] (100 mW laser), the “inhibition zone at laser intensities of 30, 40, and 50 J/cm^2” value is “inhibition zone was also identified”. The “inhibition zone at 10.0 J/cm^2 laser” value in series [2] (100 mW laser, read two days later) was “inhibition zone in which Helicobacter pylori does not grow was confirmed”. For the same substance, the “inhibition zone without laser irradiation” value in series [2] (comparative group, laser not irradiated) is on record as “no inhibition zone was found”.
With chlorin e6 [Ce6, reference compound], the “colony result value compared to the NC group at 50.0 μg/ml” value in series [1] is listed as “more than half”.
The same measure, in the same setting: as for “succinylated silicon phthalocyanine [SSiPC, reference compound]”, the entry is “more than half”.
With pheophorbide a [reference compound], in series [3], the “laser irradiation dose from which cytotoxicity appeared” value amounted to 0.8 J/cm^2. Besides, the “cellular uptake: pheophorbide a fluorescence intensity compared with the control” value in series [4] was 7×10^2. For the same substance, the “number of Helicobacter pylori colonies at 50.0 μg/ml” value in series [1] (50.0 μg/ml based on Pheoa, same amount of laser (10.0 J/cm^2)) is listed as 9×10^2 CFU/ml. Moreover, the “colony result value compared to the NC group at 50.0 μg/ml” value in series [1] was “slightly less than half”.
For butyl-poly(3SL-lysine)10-Ce6, in series [1], the “concentration at which colonies hardly appear / did not appear / Helicobacter pylori no longer grows” value turned out to be 1000 ng/mL and the “concentration from which the number of Helicobacter pylori colonies decreases” value worked out at 500 ng/mL.
With butyl-poly(6SL-lysine)10-Pheoa, the “interaction with Helicobacter pylori (Cy5 fluorescence of pheophorbide a coinciding with SYTO 9)” value in series [5] (SS1 strain 1×10^6 CFU/ml, 1 μg/ml based on pheophorbide a, 37° C., 2 hours) is “fluorescence of Cy5 (purple) of pheophorbide a of HSP did not appear”. The “inactivation: propidium iodide (Red) fluorescence, cell membrane damage” value in series [5] (SS1 strain, total 10 J/cm^2, 50 mW, Laser (+) for 3SL-LRHSP, Laser(+) and Laser(−) for the controls) is reported as “propidium iodide (Red) fluorescence was not confirmed”.
For the substance butyl-poly(3SL-lysine)10-HPP, the “number of Helicobacter pylori colonies at 10.0 μg/ml” value in series [1] (10.0 μg/ml based on HPP, laser 10.0 J/cm^2, decreased from 1×10^5 CFU/ml) is recorded as 3×10^3 CFU/ml. Besides, the “concentration at which colonies hardly appear / did not appear / Helicobacter pylori no longer grows” value in series [1] was ≥ 25000 ng/mL.
butyl-poly(3SL-lysine)10-SSiPC: the “number of Helicobacter pylori colonies at 25.0 μg/ml” value in series [1] (25.0 μg/ml based on SSiPC, laser 10.0 J/cm^2, decreased from 1×10^5 CFU/ml) is 4×10^3 CFU/ml. For the same substance, the “concentration at which colonies hardly appear / did not appear / Helicobacter pylori no longer grows” value in series [1] worked out at 50000 ng/mL.
With “3′-sialyllactose-chitosan-pheophorbide a [3SL-Chitosan-Pheoa]”, in series [1], the “concentration at which colonies hardly appear / did not appear / Helicobacter pylori no longer grows” value is 25000 ng/mL and the “concentration from which the number of Helicobacter pylori colonies decreases” value was 10000 ng/mL.

The values are drawn from patent publication US12138308B2, “Polymer composite for helicobacter pylori recognition and composition for photodynamic therapy comprising same” (eNBiaR Inc., priority 2018, dated 2024).
